Experimental data taken from patent publication US20260250651, “CAS12 PROTEINS AND USES THEREOF” (GUANGZHOU REFORGENE MEDICINE CO., LTD., published 2026).
Changes are numbered by the printed parent chain.

T1: Cas12i-69 (N295R,N260R,G705R)
T1 chain: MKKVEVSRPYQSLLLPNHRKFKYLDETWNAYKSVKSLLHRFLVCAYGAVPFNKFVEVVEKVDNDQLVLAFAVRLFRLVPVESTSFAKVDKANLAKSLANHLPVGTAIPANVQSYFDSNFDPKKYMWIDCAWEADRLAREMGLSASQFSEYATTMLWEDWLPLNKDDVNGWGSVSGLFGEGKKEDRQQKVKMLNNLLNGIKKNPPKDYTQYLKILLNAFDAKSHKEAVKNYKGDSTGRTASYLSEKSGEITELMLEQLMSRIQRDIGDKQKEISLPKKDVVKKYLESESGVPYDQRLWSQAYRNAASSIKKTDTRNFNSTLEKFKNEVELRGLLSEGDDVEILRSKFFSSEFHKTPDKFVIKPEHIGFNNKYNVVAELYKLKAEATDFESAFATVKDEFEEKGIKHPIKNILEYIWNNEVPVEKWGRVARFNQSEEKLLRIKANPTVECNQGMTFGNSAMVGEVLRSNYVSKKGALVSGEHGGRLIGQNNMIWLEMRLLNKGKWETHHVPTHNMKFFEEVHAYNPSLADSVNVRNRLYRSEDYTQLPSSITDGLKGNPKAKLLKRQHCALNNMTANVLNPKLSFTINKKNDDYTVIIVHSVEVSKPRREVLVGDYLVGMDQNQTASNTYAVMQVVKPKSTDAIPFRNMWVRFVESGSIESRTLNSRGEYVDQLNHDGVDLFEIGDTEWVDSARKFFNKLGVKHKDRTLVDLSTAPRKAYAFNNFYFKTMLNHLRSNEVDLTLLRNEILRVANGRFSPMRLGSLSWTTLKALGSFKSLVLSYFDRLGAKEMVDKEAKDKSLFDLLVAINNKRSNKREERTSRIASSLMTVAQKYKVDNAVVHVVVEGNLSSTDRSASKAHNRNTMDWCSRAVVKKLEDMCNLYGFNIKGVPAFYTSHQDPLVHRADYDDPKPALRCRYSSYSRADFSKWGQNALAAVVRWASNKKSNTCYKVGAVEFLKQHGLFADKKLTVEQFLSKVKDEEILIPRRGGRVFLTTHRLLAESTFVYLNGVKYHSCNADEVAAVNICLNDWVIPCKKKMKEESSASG

T2: Cas12i-135 (N295R,N260R,G705R,L475R)
T2 chain: T1 chain with L475R

B1: gRNA-HBG ; HBG target (ssRNA ; dsDNA)
RNA: AGAGAAUGUGUGCAUAGUCACACACAAGGCAAACUUGACCAAU
DNA 1: ACAAGGCAAACTTGACCAAT
DNA 2: ATTGGTCAAGTTTGCCTTGT
B2: gRNA-TTR ; TTR target (ssRNA ; dsDNA)
RNA: AGAGAAUGUGUGCAUAGUCACACCAGUAAGAUUUGGUGUCUAU
DNA 1: CAGTAAGATTTGGTGTCTAT
DNA 2: ATAGACACCAAATCTTACTG

How the values were obtained:
[1] = target: T1, Cas12i-69; assay: cell_activity; 293T indels; editing >3%
Experimental: (§1) Plating: The 293T cell line was plated when the confluence reached 70-80%, and the number of cells seeded in a 24-well plate was 5*10\hat{ }5 cells/well.
(§2) Transfection: After 12-14 hours of plating, transfection was performed. 100 μl of Opti-MEM, 1.5 μl of PEI (Yisheng Bio, Polyethylenimine Linear (PEI) MW25000), 250 ng of the mutant clone plasmid from Example 2, and 250 ng of gRNA plasmid for targeting endogenous genes were added to each well of a 24-well plate. The mixture was incubated at room temperature for 20 minutes and then added to 293T cells for transfection. After transfection overnight, the medium was replaced with fresh medium and cultured for the next period.
(§3) DNA extraction, PCR amplification, and Sanger sequencing: After culturing for 72 hours, cells were washed with PBS, and then 100 μl of cell lysis buffer (Viagen, DirectPCR® Lysis Reagent (Cell)) was added for lysis to obtain a lysate containing genomic DNA. The genomic DNA was amplified in the region near the target sequence, and the PCR product was sent to a sequencing company for Sanger sequencing.

[2] = target: T2, Cas12i-135; assay: cell_activity; 293T indels
Experimental: as §1, §2, §3

Binder | relative indel editing efficiency [1] | relative indel editing efficiency [2]
B1 | 1.27 fold of wild type | –
B2 | – | 1.73 fold of Cas12i-69
